PMC3139177
pKd: −log10 of the molar value.

Target: Recombinant platelet-derived growth factor-BB (UniProt P01127)
Assay: SPR

UniProt P01127, sequence (P01127 82-190): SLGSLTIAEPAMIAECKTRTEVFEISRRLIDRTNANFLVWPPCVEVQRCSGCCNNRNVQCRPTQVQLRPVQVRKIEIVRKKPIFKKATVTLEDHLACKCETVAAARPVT

| Substance | pKd |
| --- | --- |
| Recombinant fibronectin type III repeat 1 (domain or fragment) | 6.99 |
| Recombinant fibronectin type III repeats 13–14 (domain or fragment) | 8.05 |
| Recombinant fibronectin variable domain (domain or fragment) | 6.85 |
